Laboratory results as given in publication PMC4132731, “Crystal structure of RNase H3–substrate complex reveals parallel evolution of RNA/DNA hybrid recognition”.

Biological target: T1, Ta-RNase H3 D78N (Thermovibrio ammonificans, UniProt E8T217 1-270, D78N)
T1 sequence: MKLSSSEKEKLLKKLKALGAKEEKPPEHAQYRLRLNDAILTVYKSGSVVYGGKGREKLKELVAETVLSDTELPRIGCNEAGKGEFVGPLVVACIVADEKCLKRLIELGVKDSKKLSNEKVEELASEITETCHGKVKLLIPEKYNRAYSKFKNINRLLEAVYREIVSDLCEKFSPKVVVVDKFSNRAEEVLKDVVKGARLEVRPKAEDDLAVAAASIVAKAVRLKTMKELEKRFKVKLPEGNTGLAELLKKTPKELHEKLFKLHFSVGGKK
Test: X-ray crystallography (2.1 A); Mg2+ (metal ion A only); sulfate; EMSA: 10% native TAE polyacrylamide gel, binding buffer not given in the material; crystals: 0.2 M ammonium sulfate, 0.1 M BisTris pH 5.5, 25% PEG 3350, 10 mM spermine tetrahydrochloride, protein:substrate 1:1.2
Conditions: protein: recombinant; tags: N-terminal His-SUMO tag removed with SENP; extra N-terminal Ser0 before Met1 (cloning artifact); blunt

B1: 19-bp RNA/DNA hybrid (DNA:RNA)
RNA: GAGUGCGACACCUGAUUCC
DNA: GGAATCAGGTGTCGCACTC
binding result: binds
